Experimental data taken from publication PMC10090079.

Legend:
[1] = target: OsCas12f1 from Oscillibacter sp. (Oscillibacter sp.); assay: SEC; Cas12f1 RNP assembled in vitro at 4:3 molar ratio protein:sgRNA in buffer D (25 mM Tris-HCl pH 8.0, 150 mM NaCl, 2 mM DTT, 1 mM MgCl2) at 37 °C for 30 min; Superdex 200 Increase 10/300 equilibrated with buffer D; calibrated with Gel Filtration Standard (Bio-Rad); dimer in presence of sgRNA
[2] = target: RhCas12f1 from Ruminiclostridium herbifermentans (Ruminiclostridium herbifermentans); assay: as above

| Substance | stoichiometry N [1] | stoichiometry N [2] |
| --- | --- | --- |
| OsCas12f1 from Oscillibacter sp. (enzyme) | 2 | – |
| RhCas12f1 from Ruminiclostridium herbifermentans (enzyme) | – | 2 |
